Reference: publication PMC9337993
Each block holds one substance with its values, some of them ahead of it.

Experiments:
[1] = target: SynZur (SYNW2401), zinc uptake regulator Zur from Synechococcus sp. WH8102 (Synechococcus sp. WH8102); assay: native MS; native (near-native) ESI-MS, deconvoluted; WT after EDTA treatment (Zn1SynZur), Cys95Ala as purified
[2] = target: SynZur (SYNW2401), zinc uptake regulator Zur from Synechococcus sp. WH8102 (Synechococcus sp. WH8102); assay: nondenaturing SDS-PAGE; 10% Tris-glycine gel, 50 mM Tris pH 7.3, 50 mM MOPS, 0.0375% SDS, 4 °C, 100 V
[3] = target: SynZur (SYNW2401), zinc uptake regulator Zur from Synechococcus sp. WH8102 (Synechococcus sp. WH8102); assay: crystal structure; X-ray, 2.1 Å, space group P65, four molecules (two dimers) in the asymmetric unit; 100 mM magnesium acetate, 100 mM MES pH 6, 16% PEG 10000, 4 °C
[4] = target: SynZur (SYNW2401), zinc uptake regulator Zur from Synechococcus sp. WH8102 (Synechococcus sp. WH8102); assay: dynamic light scattering; 20 uM protein in 50 mM Tris, 25 °C; hydrodynamic diameter compared with values calculated for monomers, dimers and tetramers
[5] = target: Cys95Ala SynZur (Synechococcus sp. WH8102); assay: native MS; native (near-native) ESI-MS, deconvoluted; WT after EDTA treatment (Zn1SynZur), Cys95Ala as purified
[6] = target: Cys95Ala SynZur (Synechococcus sp. WH8102); assay: SEC; analytical SEC, Superdex 200 10/300, 0.5 ml/min; Zn2SynZur 40 uM, Cys95Ala SynZur 30 uM, in 20 mM Tris-HCl pH 8, 300 mM NaCl; methods give 50 mM Tris pH 8.0, 100 mM NaCl
[7] = target: T1, Cys95Ala SynZur C95A (Synechococcus sp. WH8102) (UniProt Q7U3N0); assay: EMSA; details: EMSA: 10 mM Tris pH 8, 50 mM KCl, 2 mM MgCl2, 5% glycerol, 0.05 mg/ml BSA, 1 mM DTT, 3 mM spermidine, 5 ng DNA in 10 ul, room temperature 30 min, gel at 4 C …
T1 sequence: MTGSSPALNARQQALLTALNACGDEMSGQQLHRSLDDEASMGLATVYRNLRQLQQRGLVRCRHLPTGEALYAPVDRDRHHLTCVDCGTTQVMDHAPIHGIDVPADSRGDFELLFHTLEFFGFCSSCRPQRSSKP

stoichiometry N [1]: 2
stoichiometry N [2]: 2
stoichiometry N [3]: 2
stoichiometry N [4]: 2
Substance: SynZur (SYNW2401), zinc uptake regulator Zur from Synechococcus sp. WH8102 (natural protein)

stoichiometry N [5]: 2
stoichiometry N [6]: 2
Substance: Cys95Ala SynZur (natural protein)

Substance: GTTCCATCCACAGCCACAACGCTTGGCTGGGCCGCCTGCGCCGCGACTGAACAACCCGAGACAACGCCCAGGGCGACCGCCAGACCCTTGACCAAAAGCGCAGGACGCGCCATGACACTCGAATGAGAATGATTATCATTTTTACAGTTCAACGGGTTGGCGCAACCCAATCGCGACCGCATGATGAAGTGAACCCACCGCAGCTGTGACAGAACCGCATTCGTCCATCAAGGGGCATCTAGCAGCCAGGAATCTC (double strand) [PznuA promoter (znuC-znuA intergenic fragment)]
binding [7]: no binding
